From US12357695B2, “Peptides and nanoparticles for intracellular delivery of molecules” (AADIGEN, LLC, priority 2019, dated 2025)
Square brackets hold non-standard residues; d marks the D form. Ends that are not written are not given here.

Assay: DLS particle size and level of aggregation of ADGN-peptide/mRNA complexes
Type: physicochemical
Details: retro inverso modification vs parent peptide
Protocol: Complex formation with mRNA. The following protocols were used for the transfection of 2-5 106 Cells or Cells at confluency of about 70-80% cultured in 24 well plates. ADGN peptide/mRNA particles were prepared at a 20:1 molar ratio of ADGN-Peptide/mRNA. using (0.25 μg) mRNA. Luc mRNA (0.25 μg) was diluted in 20 μl of sterile water (GIBCO) at room temperature. 5 μl Final Peptide Solution was added to obtain a total volume of 20 μl. The volume was adjusted to 50 μl with sterile water and was mixed gently with vortex 1 min low speed and incubated 30 min at room temperature. Then the volume was made up to 100 μl by adding sterile water containing 5% sucrose, and the solution was mixed gently with vortex 1 min low speed and incubate 5 min at 37° C. and then was proceeded to cell transfection.
The ability of the different ADGN-peptides to form stable nanoparticles with mRNA was analyzed. The particle sizes and level of aggregation were measured on DLS NanoZS (Malvern Ltd). The mean size and the polydispersity of the ADGN/mRNA complexes were determined at 25° C. for 3 minute per measurement. In order to remove large particles, ADGN/mRNA complexed were filtered using either PES or PVDF 0.45 μm filters. Data are shown in FIG. 8 and FIG. 9 for a mean of 3 separate experiments.

| Substance | ability of the peptide to form stable complex with mRNA |
| --- | --- |
| akwllrwlsrwlrwlarwlr ([dA][dK][dW][dL][dL][dR][dW][dL][dS][dR][dW][dL][dR][dW][dL][dA][dR][dW][dL][dR]; also: retro-inverso) [ADGN-106-RI] | did not modify the ability of the peptide to form stable complex with mRNA |
| rswsrvrwlrwrwgasrwk ([dR][dS][dW][dS][dR][dV][dR][dW][dL][dR][dW][dR][dW]G[dA][dS][dR][dW][dK]; also: retro-inverso) [ADGN-100-RI] | did not modify the ability of the peptide to form stable complex with mRNA |
